Laboratory results as given in the supplement of paper PMC9170038.

Legend:
MS2 coat protein [1] = assay: apparent KD of MS2 coat protein, switch ON state; designed switch direction (-1 OFF switch, 1 ON switch): -1; higher = weaker reporter binding; settings: FMN input: 0 or 200 uM; Eterna round: R93 (includes R88 designs)
Summary of the method: (§1)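 Apparent KD stands for the median, per design, of fits to normalised cluster binding curves. The curves came from titrating on-chip-transcribed RNA switches on Illumina sequencing clusters with SNAP-549-labelled MS2 coat protein, twofold from 0.7 or 1.5 nM to 3 µM. Buffer was 100 mM Tris-HCl pH 7.5, 80 mM KCl, 4 mM MgCl2, without or with constant ligand.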

MS2 coat protein [2] = assay: apparent KD of MS2 coat protein, switch OFF state (with FMN for OFF switches, without FMN for ON switches); designed switch direction (-1 OFF switch, 1 ON switch): -1; higher = weaker reporter binding; settings: FMN input: 0 or 200 uM; Eterna round: R93 (includes R88 designs)
Summary of the method: as §1

Sequence	apparent KD of MS2 coat protein (MS2 coat protein [1])	apparent KD of MS2 coat protein (MS2 coat protein [2])
AGGGAGUAAGGAUAUCGGAAAGGACACGAAAGUGACAAAGACGAGAAGGUACAUGAGGAUCACCCAUGUAAAAA [milkweed 24]	0.0322 µM	0.0216 µM
AGGGAGUGAGGAUAUGCGAAAGAAAAAGAAAAAAAAAAAAAGCAGAAGGUACAUGAGGAUCACCCAUGUAAAAA [milkweed 6]	0.0298 µM	0.0291 µM
AGGGUACAUGAGGAUCACCCAUGUUAGGAUAUAGAAAAGAAAAGAAAAGAAAGAAGAACUAGAAGGGACAAGAA [Unas]	0.0348 µM	0.0413 µM
AGUCAGAGAGGAUAUACAUGAAAAAAAAAAGUAAGAUCCCUACAUGAGGAUCACCCAUGUAGAAGGCUCUGACA [Ex2 Design 137: Sub-opt 1]	0.0605 µM	0.0268 µM
AGUCAUACAGGAUAUACAUGAGGAUCACCCAUGUAAAUCCUAAAAAGAAAAAAAUCAUGUAGAAGGGUAUGACA [EX3 224: Super Stable 24]	0.013 µM	0.0172 µM
AGUCUGAGAGGAUAUACAUAGGAAAAAAAAGUAAGAUCCCUACAUGAGGAUCACCCAUGUAGAAGGCUCUGACA [Ex2 Design 142: Sub-opt 6]	0.0469 µM	0.0677 µM
AGUGAGUGAGGAUAUCCCUGAAGAAUAAAAGAAAUAACGAGGGAGAAGGCACAUGAGGAUCACCCAUGUACACA [May 64]	0.0306 µM	0.0248 µM
AGUUGGCGAGGAUAUACAUGAGGAUCACCCAUGUGAGAGAUAAAAGUGAGAAAGAAAAGUAGAAGGCGCUCACA [JL Lego Mod 15]	0.107 µM	0.0601 µM
AGUUGGCGAGGAUAUACAUGAGGAUCACCCAUGUGAGAGUAAAAAGUGAGAAAGAAAAGUAGAAGGCGCUCACA [JL Lego Mod 14]	0.0775 µM	0.0463 µM
AUAAAACAUGAGGAUCACCCAUGUGAGGAUAUGCGAAAUAAUGAAUAAAGAAAUAAAAGCAGAAGGCACAAAAA [LROPPY Exclusion 1 - v05_deltaG=1.64 break up some As mixed]	0.0328 µM	0.0289 µM
AUAAAGACAGGAUAUACAUGAGGAUCACCCAUGUAAAAAAAAAAAUGAUCCUCAAAAAGUAGAAGGGUCAAUAA [JR_Exc003_Sub015]	0.0787 µM	0.155 µM
AUAGGCCUAGGAUAUACAUGAGGAUCACCCAUGUAAACCGAUAGAUCACGGUAAACGAGUAGAAGGAGGAAUAA [JR_Exc003_Sub208]	0.0265 µM	0.0303 µM
AUGUACCUAGGAUAUACAUGAGGAUCACCCAUGUAUUGGGAGCAAUCAAGUUAAUAUUGUAGAAGGAGGUGAAA [JR_Exc003_Sub316]	0.0257 µM	0.0679 µM
CAAAGGUGAGGAUAUACAAGGAUAUGACGAAAGUCAUAAAAACAUGAGGAUCACCCAUGUAGAAGGCACCACAA [E2 64% 4]	0.0339 µM	0.0437 µM
CAAAGGUGAGGAUAUGCAUAACUAUGACGAAAGUCAUAAACACAUGAGGAUCACCCAUGUAGAAGGCGCCACAA [e2-3]	0.0788 µM	0.0572 µM
CAGUACUGAGGAUAUACAUGAGGAUCACCCAUGUGUAAAAGCUAGGAAACUAGCACAUGUAGAAGGCAGUACUG [Ex3: 815]	0.0483 µM	0.23 µM
CAGUACUGAGGAUAUACAUGAGGAUCACCCAUGUGUUAAAGCUAGGAAACUAGCAAAUGUAGAAGGCAGUACUG [Ex3: 817]	0.014 µM	0.0479 µM

Sequence	apparent KD of MS2 coat protein (MS2 coat protein [1])	apparent KD of MS2 coat protein (MS2 coat protein [2])
CAUUCACAUGAGGAUCACCCAUGUAAGGAUAUCGAAAUAUAACUAAUCAAUAAACAAACGAGAAGGUACAAAAA [Exclusion 1 design 10]	0.0337 µM	0.0238 µM
CCUAUGUCAGGAUAUCAGUAGUAAAAAAAAAAAAUUACUACUGAGAAGGGACAUGAGGAUCACCCAUGUACCUU [EX4 310: Super Stable 10]	0.0255 µM	0.0178 µM
CGUUGGCGAGGAUAUACAUGAGGAUCACCCAUGUGAGAGAAAAAAGUGAGAAAGAAAAGUAGAAGGCGCUGACA [salish99-ex3-11]	0.0453 µM	0.264 µM
CUCAAGUGAGGAUAUACAAAAAGUAAAUAAGUAAAACAAAAGUAGAAGGCACAUGAGGAUCACCCAUGUAAAUA [JR_Exc004_Sub301]	0.0455 µM	0.0631 µM
CUCAAGUUAGGAUAUGUAAGAAAAGAAGAGAAAGAAAAGAAACAGAAGGAACAUGAGGAUCACCCAUGUAAGAA [EteRNA is fun!]	0.0221 µM	0.0241 µM
CUCAUGUCAGGAUAUCAGUAGUAAAAAAAAAAAAUUACUACUGAGAAGGGACAUGAGGAUCACCCAUGUCCCAA [EX4 305: Super Stable 5]	0.0307 µM	0.0363 µM
CUCAUGUGAGGAUAUGUACGAAAAAAUAAAAAAAUAAAAGUACAGAAGGCACAUGAGGAUCACCCAUGUGAAAA [EX4 398: Minimal 11]	0.0425 µM	0.0243 µM
CUCAUGUUAGGAUAUUUAUGAAAUGAAGUGAAAGAAAAGAAAAAGAAGGAACAUGAGGAUCACCCAUGUUAGAA [EteRNA is fun!]	0.0652 µM	0.0354 µM
CUCUAGUGAGGAUAUGGAAGAAAAGAAAAGAAAGAAAAGAACCAGAAGGCACAUGAGGAUCACCCAUGUAAGAA [EteRNA is fun!]	0.0477 µM	0.066 µM
CUCUUGUAAGGAUAUGACUACAUAAAAAAAAAAAAAUGUAGUCAGAAGGUACAUGAGGAUCACCCAUGUACAAA [Brourd - Exclusion 4 - Sub 1]	0.0245 µM	0.036 µM
CUCUUGUCAGGAUAUUCAAGAAAAGAAGAGAAAGAAAAGAAGAAGAAGGGACAUGAGGAUCACCCAUGUAAGAA [EteRNA is fun!]	0.0524 µM	0.0672 µM
CUCUUGUGAGGAUAUAGAAGAAAAGAAAAGAAAGAAAAGAACUAGAAGGCACAUGAGGAUCACCCAUGUAAGAA [EteRNA is fun!]	0.0387 µM	0.0677 µM
CUCUUGUGAGGAUAUCAAAGAAAAGAAGAGAAAGAAAAGAAUGAGAAGGCACAUGAGGAUCACCCAUGUAAGAA [EteRNA is fun!]	0.0289 µM	0.0595 µM
CUGGUGUCAGGAUAUGCAUAGCAGUGACCAAAACCCGGUCAGCAGAAGGGACAUGAGGAUCACCCAUGUUAAAG [Alatele]	0.0223 µM	0.0577 µM
CUUAAGUCAGGAUAUGUCAAAAGUCACAAAAGUGACAAAAGACAGAAGGGACAUGAGGAUCACCCAUGUAAAAA [Starry Exclusion 4.5 (starryjess round 1 mod)]	0.0783 µM	0.139 µM
CUUGUGUGAGGAUAUGUAAGAUGAAUAAGCAGUUCUAAAAGGCAGAAGGCACAUGAGGAUCACCCAUGUAAAAU [Sodirexe]	0.0613 µM	0.0161 µM
GAAAAACAUGAGGAUCACCCAUGUCAGGAUAUGCAGAAAAAGAAAAAAAGAAAAGAAAGUAGAAGGGACAAAAG [Mat - Same state - Mayanna Mod - D106]	0.0294 µM	0.0286 µM
